Measured values reported in publication PMC2920228.

Key:
[1] = molecular target: AgsA (aggregation-suppressing protein, small heat shock protein), wild type, His-tagged (Salmonella enterica serovar Typhimurium); assay: FRET or BRET; data not shown; subunit exchange of fluorescein- and rhodamine-labelled AgsA at 45°C, 40 min
[2] = molecular target: AgsA (aggregation-suppressing protein, small heat shock protein), wild type, His-tagged (Salmonella enterica serovar Typhimurium); assay: SEC; Superdex 200 XK 16/70, 20 mM Tris-HCl pH 8.0, 1 mM EDTA, 100 mM NaCl, run at 25°C; apparent mass from a calibration curve
[3] = molecular target: ΔC11, C-terminal 11 AA truncated AgsA, His-tagged (Salmonella enterica serovar Typhimurium); assay: SEC
[4] = molecular target: ΔC11, C-terminal 11 AA truncated AgsA, His-tagged (Salmonella enterica serovar Typhimurium); assay: SEC; Superdex 200 XK 16/70, 20 mM Tris-HCl pH 8.0, 1 mM EDTA, 100 mM NaCl, run at 37°C
[5] = molecular target: ΔC11, C-terminal 11 AA truncated AgsA, His-tagged (Salmonella enterica serovar Typhimurium); assay: SEC; Superdex 200 XK 16/70, 20 mM Tris-HCl pH 8.0, 1 mM EDTA, 100 mM NaCl, run at 42°C

Row | decrease in donor fluorescence after 40 min [1] [%] | stoichiometry N [2] [subunits] | Substance | stoichiometry N [3] [subunits] | stoichiometry N [4] [subunits] | stoichiometry N [5] [subunits]
1 | 40 | 22 | AgsA (aggregation-suppressing protein, small heat shock protein), wild type, His-tagged (natural protein) |  |  | 
2 |  |  | ΔC11, C-terminal 11 AA truncated AgsA, His-tagged (domain or fragment) | 3 | 2 | 2
